According to a protein production outcome set (Wang et al. 2014):

Test: label from the status in PepcDB records

Sequence	protein production
MKIKAVGAYSAKQPLEPMDITRREPGPNDVKIEIAYCGVCHSDLHQVRSEWAGTVYPCVPGHEIVGRVVAVGDQVEKYAPGDLVGVGCIVDSCKHCEECEDGLENYCDHMTGTYNSPTPDEPGHTLGGYSQQIVVHERYVLRIRHPQEQLAAVAPLLCAGITTYSPLRHWQAGPGKKVGVVGIGGLGHMGIKLAHAMGAHVVAFTTSEAKREAAKALGADEVVNSRNADEMAAHLKSFDFILNTVAAPHNLDDFTTLLKRDGTMTLVGAPATPHKSPEVFNLIMKRRAIAGSMIGGIPETQEMLDFCAEHGIVADIEMIRADQINEAYERMLRGDVKYRFVIDNRTLTD	not failed
MKIKTSYLIYAVIATVFAGLSMVTDIFEKGNFEAIFSNLGMIIGLSILAYILITMAKSFIDLVINELKN	failed
MKILFIKLSALGDVLASTPLFASTKAEHPDWFVGHVVARPYADATRNNAHVDAQFVVDSPLSKGLAEKIGVAVGIWRYVLRERYDIAVVLHRSFVLQLICRLALVKKVVGYEGPFSFILNHSIPFSMRGNRSNLELRLLKSAGIIRDEKKKLRFDIDFGNVDPSRLRALPDAFIAVNAGGGNADAHAANKLWPAEHYGALIKQLPLPAVMLGHGAADERIRDRVAATGATFVDLIGKTNLDETAVVLRRSSLYVGNDSALLYLAASLGVTTIGIYGPTDPAAFSPLGANNLWLSGKTSCAPCYSSFDGIGGRMYTCADNICMKAVTVESVSERIHAALHQDQNLQVAGPDVVGSGQGGAASEAGDRARAHARAGHQAVGDGGFAVPVSRRPPVGARVSGRDD	failed
MKILKKIFQVIVKIINHCVPVDSRSLYFIPHPNCRTDKYDIINYSSDNVLVLLNYLLKKDSAEYYKIYVEIYDSSRISEYQEYIYGINPNIRCTFLCACVGRFFFNKVSFKDMLYAFFCFCRASKCFTATFYYDFSFKKRSQQIICLGYYTPFKDDYHMGDHSYDKFRNTTCNSFDYSIATSCLSARIISIDCGISYDKFKVLGFPRNDLLISKNNCNVIKREISKFAGYDVTKYIVYTPTFRDYETVTEGNLRSILGYVDCDLLKLSKILLKFNAALILKLHPLQNKTVLKKDLPKGILVFEQTYKYGLYDLLSFSDGMITDYTSTYFDFLLVNKPVIFNFYDIEEYRRVRGFSFEPIEFFCAGDIVYNYNELIDAVMGLLAGKDIHAEHRRHISLLMNQFQDDNSTKRICDIFLNEILEHHHHHH	failed
MKILVDENMPYARELFSRLGEVKAVPGRPIPVEELNHADALMVRSVTKVNESLLSGTPINFVGTATAGTDHVDEAWLKQAGIGFSAAPGCNAIAVVEYVFSALLMLAERDGFSLRDRTIGIVGVGNVGSRLQTRLEALGIRTLLCDPPRAARGDEGDFRTLDELVQEADVLTFHTPLYKDGPYKTLHLADETLIRRLKPGAILINACRGPVVDNAALLARLNAGQPLSVVLDVWEGEPDLNVALLEAVDIGTSHIAGYTLEGKARGTTQVFEAYSAFIGREQRVALETLLPAPEFGRITLHGPLDQPTLKRLAHLVYDVRRDDAPLRKVAGIPGEFDKLRKNYLERREWSSLYVMCDDETAAALLCKLGFNAVHHPAH	not failed
MKILVTGGTGLIGRHFISAFNHKYQFTVLTRNTQKAQLYLPKNIEFIEQLPEQNYFDVIINLAGEPIIDKRWSRAQKENICQSRWNITEKIVEMIARATDKPSCLISGSAIGYYGETGAVSTHEDAKVTHSDFAHTLCQKWEELALKAKEHCRVVLLRTGIVLASDGGALEKMRLPFSLGLGGKLGNGQQYMSWIHIDDMIHAIHFSVQIKCIEGAINCTSPKAITNEVFTKALGKEVNRPTWFSVPAFVLNILMGQGAELLLTSQNIYPQKLLSHGFHFNHSDIEHALADLMTES	failed
MKILYPTDFSEVSQKALTECVPSIILGIGEGSELILLHVVDITASEIGALELAEVDKEELNNLASQLREKGIKVKPIVRIGIPSLEISEVAKEENVDLIIIPSKGENILRQMLLGSTASNLARITHKPVLLLRYEVENGEIKSLQDCSRIFEKPLVALDLSKCSEKIIETIKDLPGVREAVLFHVVDYGKVEELENNIKNAKEKLSKYGKLLPWKTKIEVQAGIASKGIIGAAIDNNVTLVVIGKKGRSVLKDLLLGSTAERVIRDCKLPTLLIPCE	failed
MKINQLWQEPKQRSKRYYLLDNIFSAITHGIGFGLAIAGLVVLIVKAAHTGSPMRIVTFTIYGACLVLLYLFSTLYHSLVFTRAKNVFQIFDHSSIFLLIAGSYTPYSLVAIGGVWGWTLFGLIWGLTIFGIIYYVFNRGKHVIFDTILYVAMGWLVILSGPYLYVRLSSTGFWLLVGGGIAYTIGAILFSMRSVPFIHTIWHLFIILGSILMYFSVLLYV	failed
MKIPKIYVEGELNDGDRVAIEKDGNAIIFLEKDEEYSGNGKLLYQVIYDDLAKYMSLDTLKKDVLIQYPDKHTLTYLKAGTKLISVPAEGYKVYPIMDFGFRVLKGYRLATLESKKGDLRYVNSPVSGTVIFMNEIPSERANYVFYMLEE	not failed
MKIRDLLKARRGPLFSFEFFPPKDPEGEEALFRTLEELKAFRPAFVSITYGAMGSTRERSVAWAQRIQSLGLNPLAHLTVAGQSRKEVAEVLHRFVESGVENLLALRGDPPRGERVFRPHPEGFRYAAELVALIRERYGDRVSVGGAAYPEGHPESESLEADLRHFKAKVEAGLDFAITQLFFNNAHYFGFLERARRAGIGIPILPGIMPVTSYRQLRRFTEVCGASIPGPLLAKLERHQDDPKAVLEIGVEHAVRQVAELLEAGVEGVHFYTLNKSPATRMVLERLGLRPASGQP	not failed
MKIRFISLASGSSGNCYYLGTEKYGILIDAGIGIRTIKKSLKDINVTMDSIRAVFITHDHADHIKAVGHLGEKLNIPVYTTARVHAGINKSYCMTEKLHGSVRYLEKEEPMLLEDFRIESFEVPHDGTDNVGYCIEIDGKVFSFLTDLGEITPTAARYICKAHYLIIEANYDEEMLRMGPYPTYLKERISSKTGHMSNIDTANFLAENIMEHLRYIWLCHLSKDNNHPELAYKTVEWKLKSKGIIVGKDVQLLALKRNTPSELYEFE	failed
MKIRILGSGTSTGVPEIGCTCAVCTSKDPRDCRLRTSALVYTDDATILLDCGPDFREQMLRVPFGKIDAVLISHEHYDHVGGLDDLRPFCRFGEVPIYAETYTAERLRSRMPYCFVEHSYPGVPNIPLREIEPNRPFLVNHTEVLPLRVMHGKLPILGYRIGKLGYITDMLTMPDESFEQLQGIEVLVMNALRIAPHNTHQSLSEALEAVKRIGAKETWLIHMSHHIGLQADVEKQLPPHVHFAFDGLELECLEHHHHHH	failed
MKIRTTLTLQYAGITAAVFFAFVIAVYYVSEHSRSNAFFRNLQSEAITKAHLFLNNQVDAKTMQSIYLNNQKFINEVEVAVYTTDFKILYHDALQNDIVKETPEMVKRILKRKNISFYVDEYQAIGLVYPFEGQYYIVTAAAYDGYGYANRDALRNMLILLFIGGLSVLAIVGYILSRSTLKPIRNIVREAEKITASHIDKRLPVKNEQDELGELSITFNALLERLEKSFNSQKMFVSNVSHELRTPMAALTAELDLALLKERTSGQYQAAIGNALQDSRRIINLIDGLLNLAKADYQSEQITMEEVRLDELLLDARELVLKAHPDYHIELVFEQEAEEDNVLTVIGNSYLLTTAFVNLVENNCKYSSNRTSSVLIAYWEQWAIIRLSDNGVGMSDADKENLFKLFYRGENKNIAPGNGIGMVLTQKIIHLHKGELTVSSHKDEGTTFVVKLPHI	failed
MKIRVDDITDQPKILSFQEPSEAFPSLAELQATGESEFLSPLMVELAVSKEYGHIRVKGSVAVKIRFVCSRCLVPFDADISSAFTMFYSEGSRIDSDEDEIELAEEDLVSVFYEGDEIDFAPEIAEQVIMELPLKPLCGEGCKGLCVTCGADLNEGECGCERTTFNVKFSALKNFKVEKLEHHHHHH	not failed
MKISIITAVYNDPRVERCLDSVASQQGNFEVEHIVVDSESTDDTVDVIEQYENHIDCLISEPDDGMYDAINKGIEAATGDVIGLLNADDYYQDQRVLHDVASQLAETGADACYGDLVYVDADDDVVRYWKSDEYSRYKLYYGWMPPHPTFFVRHEIYERHGGFDLSYEISADYELMIRLLLNTDISVTYLDRVLVRMELGGMSNQSIENMLTVIEDMYRGWKKHNRLGRFVAPFLHPVEKVPQFIRSPPGEKEGTLEHHHHHH	failed
MKITTKGRYGLTITLELAKRIGDGPISLRSIAQDKNLSEHYLEQLIGPLRNAGIVKSIRGAHGGYVLNGDPEKITAGDIIRTLEGPIVLVESMEDEEAAQRELWTRMRNAVRDVLDQTTLSDLLKHSTDSELTDGYMFYI	not failed
MKITVIVPTYRRTKDLTRCLESLEKQSRPADEVLVVVRDTDVETWQFLETIAPHSLPLHTTTVRVPGVVAAMNAGLDIAQGDIIAFTDDDAAPHSNWLAQIETHFLAHEQIAGVGGRDWVYHGDRLEDGTCPVVGQVHWFGRVIGNHHIGIGKPREVDVLKGVNMSFRRSAVHGLRFDQRMLGTGAQVHFEVAFCLALKRAGWKLIYDPQIGVNHYLEHHHHHH	failed
MKKGTVLNSEISSVISRLGHTDTLVVCDAGLPIPNSTARIDMALTQGVPSFMQVVDVVTREMQVEAAILATEIKQQNPQLHETLLTHLEQLQQHQGNTIKISYTTHEQFKKLTADSQAVIRSGECSPYANVILCAGVTF	not failed
MKKIATATIATAGIATFGLAHQDADAAENNNGYNPNDPYSYSYTYTIDQQGNYHYEWQGNWSPSQAQQGGQQNTGNQAVNNTQSNNNYNYNYNNNQSNQNTQSYTANNNAGGGLGASYSTSDRNVKVTTQNAPTTQSTSSNASSSSSSEALAGKSSGGSNLYTAGQCTYYVYDKVGGKIGSTWGNANNWATAAAADGYTVNNTPKAGAVMQTSQGAYGHVAYVESVNDDGSVKVSEMNYNGGPGVVSSRTISAGQAGSYNYIS	failed
MKKIKALALFSGGLDSLLSMKLLIDQGIEVTALHFNIGFGGNKDKREYFENATAQIGAKLLVCDIREQFFNDVLFKPKYGYGKYFNPCIDCHANMFRNAFYKMLELNADFVLSGEVLGQRPKSQRKEALNQVRKLVREVGEEARFDPVLDRTQAGGKKPQFLDELLLRPMSAKLLEPTFMEKKGFVDREKLLDVSGRGRSRQLQMIKDYGLKYYEKPGGGCLLTDIQVSNKIKNLKEYREMVFEDSVIVKNGRYFVLPHNARLVVARNEEENHKLDIQHPLMDKIELLNCKGPLSLVDKNASKEDKELAGRIALGYAKTLKNQAYLIQIGDEKRELYPLDKENAREYLFA	failed
MKKILALILIIYSSSVFSHFSHFEPRIIHLYQDNQDTIILMRMPLPLILLDENWKGIDSKQNIPYTNKVNNSGYLIDPEKITKNLDDFKKSITPGYTIKKNGVVQNYHIESINIFNSDDRKPFSSLKTAEENFTSDVTIRPSATKLFDAGIDIKLRISNTSVINDDISISSILGDKFNAINKLANIINLHRDIANESVTTTLGILDYSSTHLPSMTQQLINGFSDGFIHILIGLDHVLFVLLLFYSAASFLKLLSLATAFTFGHSFSLFFGDNIAIASPIFIPGIELLIALTIAFTAIALLLKKAQHLGTTPLLVIGVIHGFGFSFVFNELEKEGAQTSITNLLSFNFGIEAGQLFIYALAFTMTILIKKQTVLVKKLPYYVSVCALVISAYWVVTRSMPLFDYIVI	failed
MKKILFCLPLLLLALQSCEIEDEYMYDKGLYTIDWDAAADSSSVTLIDRFWNTEENYFNYGNDGSIKDFHYWPQAHAMDVMIDAYNRTGDSKYSDLFDKWYVGIKAKNGGSYWNNFYDDMEWIALTMIRLYEVTDENKYLETSQEMWNEIKTGWNDYAGGGIAWTHDQLWSKNACSNGPAALIAARLYRINGNQEDLDWAVNIYKWERENLFNPATGAIYDNVNGETGELSTLSLSYNQGTFLGAAYELYKITGEESYLKDARKAANFAISNSSMIDTGNNLLRDEGDGDGGLFKGIFMRYYVQLIMEPNLDPIYKKKFITFFNNNAEILWRKGINKLDLLYNTNWAMNNSGNNHLTTQTSGCTLIEAKALFEKSLK	failed
